Results as given in the DeepSol protein solubility set.

experiment: soluble on expression in E. coli; label from the status in PepcDB or PDB records

Row | Sequence | soluble on expression in E. coli
1 | MSLPFTTILRMSRSRLVKQKGNKKRMTTVVSNAREIAAIDLGSNSFHMVVAKVVDQDLQLISRHKQRVRLAAGLDEQKNLDEESIQRGLECLAMFAERLQGFEPRNVRIAATHTLRQARNANLFIQRALDVLPFPIEIIPGSEEARLIYLGVAHTQPQADSMLVVDIGGGSTEMIIGKGFEAELLNSKQMGCVNFTERYFANGKLSRKNFAQAIVASEQKLESIASKYRKKGWQMAFGSSGTIKAIHEVLIGQGHEDGLITFERLSKLIEKLCEWDSIDDLQLPGLTDDRKPVFAAGVAILSAIFHGLNIKEMHFSDGALREGLLYEMEDRFKYSDIRLRTTENLAAKHLVDLEHAAKVKGHAREFLAQVANELGLPEGSELCDLLEWGALLHEVGLSINLQGFHRHSAYILRHNNMAGFNSEQQLVLSNLARFQRKSLKLNELDDFSLFKKKHIIGLIRVLRLAIVVNGQRNDDPLPPLTLSAKDDEWRLECEQPDWLENNKLLHADLQTEQEYWREVGWQLLFEGHHHHHH | not soluble
2 | MSLPNIFVEELVHTPIEKQVIEIVERKGIGHPDSLADGMAEAMSRELSREYIRRFGAVLHHNTDETQIVAGRSNPQFGGGEVIEPIYVLLVGRATKFFNGEYIPTDKIALKAARDYIRQHMQNLDPELDVVFNVRLGEGSTDLQDVFRRKSGNVALANDTSFGIGFAPLSETERLVFNVERRIYEEFRKKNPAIGEDVKVMGLREKDRISLTIAAAFVDRYVANIKEYDAIKEELENFVKEISSEYTEREVEVFVNTADDYETGCVYLTVTGTSAENGDDGSVGRGNRCNGLITPGRPMSMEASSGKNPINHVGKIYNLLANQIAARIAEEVEGVEEVYVRILSQIGKPINEPKALSVQVIPKSGYDISKLERPARDIAEEMIANVGKITDMVIEGKVRTFEGHHHHHH | soluble
3 | MSLPQSKVLTSFGTANRTPRAAETHPLTWRLRDDGQPVWLEEYQTKQGYDAVRKALGQMSPDEIVSTVKDAGLKGRGGAGFPTGVKWGLMPKDESMNIRYLLCNADEMEPNTWKDRLLMEQLPHLLIEGMIISAKALKAYRGYIFLRGEYVDAAINLRRAVEEAKAAGLLGKNILGSGFDFELFVHTGAGRYICGEETALINSLEGRRANPRAKPPFPAVSGVWGKPTCVNNVETLCNVPAIIGNGVAWYHTLALPGSEDHGTKLMGFSGKVNNPGVWELPFGITARELFEGYAGGMRSGYRLKAWQPGGAGTGFLLPEHLDAQMYTAGIGKVGTRMGTGLAMAVDDSISMVSLLRNMEEFFARESCGWCTPCRDGLPWSVKLLRSLERGEGQEGDLATLEQLCNFLGPGKTFCAHAPGAVEPLASAIKYFRSEFEAGIKGSGDNRKSIKGIQPNLLGERWAAALEHHHHHH | soluble
4 | MSLPRKIAYEIPKNWARSNHWLMKTIVGTTFEIEGLENIPETGCIFAPKHQSFWDTYALLPNLPDPVYILKRELLWIPLFGWYAMKQRMIPVNRAARGKVMLKVMERAKEEMAAGRELIIYPEGTRRPPGAEPEYRYGIARLYRDLQVPVIPVAMHPGLFWPRRSTMRYPGHFKVRILPAIEPGLDPDVFFKRLIEVTEKASDELLLETARNNPHLPLPPTAVKRIAELQGKETTADEGHHHHHH | not soluble
5 | MSLPVCYYLDATGGDDNNSGLAPDEAWKSLEKLRGVKLLPGNKVLLKRGEVFNGELEITGQGIPEDRIYIDAYGDDERKPCIVGYDTSLYAARICNSDYITMQNLEIVNTGRQPLPYRSGLKIECMDYGVSQNIVVNNVTVRDVNGSLVKEKGGGCGIYIVNGGEKKISTFNRLTIENCHILRCTRNAMIWAAYSDRQNWHPSKHTVIRGNLIEEVPGDGIVPIGCDSTLIEYNVMRDCPDMLPDTEAAAGIWPWSCDNTLVQFNEVSGHKAPWDAQGFDSDWNCRGTVIQYNYSHDNYGGLVLVCNDGTADASFNVGNLGTIVRYNVSIGDGVRPEPTRAGMFSPAVHLAGPVKDSRITRNIIHVNRKPAADIDRTMITLDSWGGYPDSTFISGNIFYAPESSRFQLTESTHNFFEGNYYLGRFEKLPEDGKACQSAEIYQKEVLAKDENGYQGLALLMDTVEVTGVKGVFVNKEAIENFFSRLEKEGHHHHHH | soluble
6 | MSLQADEQSNGKIKFSKFKVNIKNKDNKSNWTDMGTLVVEKVEYGIATGLNNDKQGGGHSSTFFSLEEEEVNNFVKAMTEGGSFKTSLYYGYKYEQSDEKGIQNKEIITKIEDINCSKHITFSGDKIAKNEGHHHHHH | not soluble
7 | MSLQIKSIKAYHVVQPFVDGPYRMSKGRQADAFDAVIVAITADSGLTGWGEMAPLGNFYSAAFPAGARAGVPEIAPHLIGHDPRGLASIGRLMDTVFKGHPYIKSALDMACWDLAARAAGVPLVTMLGGRESDMAETYRVVTHGTLDQMAALAKRIIAEGCRRLQVKVGGNVHDDIERVTTVASAVPKGTVIFCDANAGWTPYQARQFADATRGIDYTFEQPCTTIEENMSVRRMLDKPMVLDESVTSLEEMLEIHRLGAADGLTLKISRLGGVTRTRQIRDVAVDLGFMITVEDTGGAEIDTAAMAHLSLSTPQERRLHAIAFHEWVTVRTAFNAPPVTGSHMGIPDGPGLGIDVDPSLLGKPFFEIGEGHHHHHH | soluble
8 | MSLQIQNLTKQFGESKAVNSLQISLPKGEVLGLLGRNGAGKTTTIKMLLGLLTPNEGSITWDGKTFGTSGVTIGYLPEERGLYTKSRVIDQLRYFGRLEGMAKKEVDLAIDHWLDRLAIPEYKFKTAGELSKGNQQKIQLIAALLHNPELLILDEPFSGLDPVNAGMLASIIEEQVQSGKTIILSSHRMEQVEAFCQHVCILKKGEAVVKGQLSDIKKEYGFRNLTIEDTEENEKGLQAIHVSYEKQQGLLYVKVQDDAEALNILQQLQEQGVTLRQFKMLEPTLNEIFVERAK | not soluble
9 | MSLQKELARNQHLAERLLETEESVRRDVARELHDDIGQTITAIRTQAGIVQRLAADNASVKQSGQLIEQLSLGVYDAVRRLLGRLRPRQLDDLTLEQAIRSLMREMELEGRGIVSHLEWRIEESALSENQRVTLFRVCQEGLNNIVKHADASAVTLQGWLQDERLMLVIEDDGSGLPPGSGQQGFGLTGMRERVTALGGTLTISCLHGTRVSVSLPQRYVEGHHHHHH | soluble
10 | MSLQQQPPGTPKSTHGAWSVICDKPAGASEEQCALMQNVIADDRPEVGLSVVILKTADRKSRILRILAPLGVLLKDGMELYIDNNNIGRAYFTRCFSEGCYVEVDIDDELLKVLRAGKNAVFALRESVDQDRVGIPIELSGFAEGYDALPEGHHHHHH | not soluble
11 | MSLQVVIKFGGTSVSTRATWNNIAAITQKHLNTGVQPVIVCSALTQISNKLEKAIEAALLDEHHSLFNDIQSSHLNLAEQLEVNHQLIANDLHQLQQWLTGISLLKQAPAKTHAQILSLGELMMTRMGHAFLERHEIKVKWYDARELLTSTPTLGGETMNYLSARCESEYDPGLVEKFLSSGAQAIITQGFFAANPHGETVLLGRGGSDTSAALLAGKLQAASCEIWTDVPGIYTANPHQLPHARLLKQLNYDEAQEIASMGAKVLHPNCIPPVRKANIPMVVKYTHLPEHSGTLITKDIDESAPLIKSIQVKHSILLISIDTLNMWQQVGFLADVFAAFKKHGFSVDLLSSSEFNVTLSLDVNAKIHDRPAINALLDDLNQFGRAKLIEPCSAVSLVGHHIRTVLPHLGPALEVFEAKQVYLMSLASNDLNLTFVVDESHADKLCQRLHHLLIESNPQIFYYSKSWHEEFGKPNVRPTPWWEIERDRLLTTSAIHSPCYVYHSPTQAIRARQLSALESIDSLFYAVKANPFPSILKTLEKEGIGFECVSIQELELVLKLFPNIKKERILFTPNFAPKSEYEFALQTGCYVTIDSLYPLENWPELFKNREVIVRIDPGTGAGHHKHVSTGGNESKFGITQNDISKILSLTKSNHIKVIGLHAHSGSGILSTDLWQQTAVMLASLTDQFPEVRSINLGGGLGIVEKPGQHPIDFAALDAQLMAVKSQYPGLAIWLEPGRFFVAESGVILAKVTQCKEKGKVKFIGIETGMNSLIRPSLYGAYHEIVNLTRLHEEKAGFAHIVGPICESGDTLGYDRLLPVTKEGDVILIANTGAYGHCMSSHYNLRPPAQEIVLEEGHHHHHH | soluble
12 | MSLRAAARELSVGHTPTIGLVVADLANPFFAQLADRVVWEARSHGVQVMVMTTQEDPHLEADSLDTLLDRSVGGVIATPTGANIEKWARLQSLGVNVVFVDRTIPELEDVDLVSIENVDSARRATEHMLGLGHRRIGLITGPVSTSTGRSRIEGYKAAHNNFSISVDPQLIRDVAFRGDGGGDAVGSLLALPDRPTALIVANTAQVLSSVRRLVQIGVRIPDDLSVIVFDDNPWTELTNPPLSVIRQPIDMLAVHSLELVLGRMQGRLPAAPRTIEVKADFVPRSSCSPLALSEGHHHHHH | soluble
13 | MSLRAGTEETERGHTALTVEGIGRRRGSEERETPERGDKEEGKEQVKRETAGGTRSSSPQKQRGKSTTRRLSVAGLSSERTQSNFEIHRELEDQTDDAMSGAGGIDCSMSGTTATVVLHIHALKKLFVAHVGDSRAVIARREHASSRAVAGGSDGFRQETRNDSRMLQQQTSSEPRETAEDRGCRSAGTGTDCRPLSRLMAFDLTNDHKPTNEIEKQRIMKAGGQVRRLEGDVPHRVFLKNRLFPGLAMSRAIGDTIATQAGVIPDPEVRGYQQSQSDEGHHHHHH | soluble
14 | MSLRAQGEVVLSIDGEPVKRSEFEYYFRKSSHRTPLSFLPSFINYKLKVRYAHDMGIDTLSVFRRQVDWYRGKLLRTYLADAEKEEQAARRLYLQGEQRLQANDWIKIAHISKYLSQNASRQEEMRVRQQMDSVYEALREGADFATLARRYSDDEACKNVGGVLPWMPVNKNMQEWIDKLESLERNKISAPFYSPMGIHIVKWIDRRQGVSFEEKREQLLNYLEKNGNCTWKELSAEQKEELEFRVQELQDGLLAAYLSQKYQSGDEAWNEDDLERFFKQHKSDYAWELPHYRGAVIHCKDRKTASAIKKQLKKKPVSQWKDILHTLTGDDASSKVRMEAGVFQIGTNRYIDKLVFKCGSFQPEPDLPYTFVMGKKLKKGPESYEDVREAVVKDYLTVYEDAWLKDLKRKYKVEINQEVLKTVNNNGSEGHHHHHH | not soluble
15 | MSLRASTVKQHAFGLLIPELGQTEIFEPICQGMVAAQEAHNHVLIWGRSLAGSETTEADAKDVCARLISNRVSGVFFAPIEANPQKDAINRIISTMLSDAKIPIVLLDRDIVDYPQRSKFDVVGIDNRRAGCVATQHLIDAGCRRIGFIGRPHLAPSCVARCNGYRETVSNSSIPLAPTFAERLDPSDPILVGKVMDRHKPDGIVCSNDRTAALLMRTFATLKIAVPDQVRLVAFDDVKYASLVTVPLTTIHQPCDQLGAAAIQAMVQRIESPDMPPRDILVDFHLVVRESCGARMAREGHHHHHH | soluble
16 | MSLRDIAIGASLELSGPTQSIGTAYKKALELQVDSINEQGGVLGGRKLRLVVKDNQTKPAQNITNVNDLINNDHVVAVITGGCSACTVPVTSIVEKRKVPLISLASATAITDPVAERQYTFKISPNPAQDAEVLLADLKKKGVKSVGLLNVDNPYGQEGRAAVLAQAKKAGIEVTGTQQFGQEDKDMSVQAKRLVDDRPEAVVVWAVMPAAGIIAKNLRDAEFDGGVYLDAGAGAELFVKGAQGAAEGVHMVFPRVLAIGDVTSGGDSVRKQKQWVARYTDRYQDYSGFASFAADAALMLRDAIAKSGSTDGAELRDTIETIGFDGVSGPIRNSAKEHSGLQPESLGVLVVRDGDWHLANEGHHHHHH | soluble
17 | MSLRFEGIYTPAVTPHTPDGDIDWAVFSEVLESLIEANVHGIIIGGSTGEYYAQTAEERLKLAAHAKDVMGNRVQLIIGTGAIRTEDAVLFAKDAKALKADAILVTTPPYALPTDQENAIHALTIDRAANMPIMLYNYPGRMGVQMNEDYLARVGKSKNVIAIKESSGEMGRVHLLAREFPHIALSCGWDDQALEFFAWGARSWVCAGSNFLPREHVALYEACVIEKNFDKGRQIMSAMMPLMHALDGGKFVQCIKFGCELNGLKVGDVRAPLRPLNAEDKRSLQTVIANVKEGHHHHHH | not soluble
